Source: patent US8158376B2, “Bisubstrate fluorescent probe binding to protein kinases” (University of Tartu, priority 2006, dated 2012)
Where two headings read alike, the source gives them in different places.

Assays:
Assay in all cases: Kinase selectivity panel
Format in all cases: biochemical
CK2 = CK2 (Homo sapiens, UniProt P68400); settings: read-out: residual activity (%) CK2
Description: (§1) The panel of kinases included all 52 kinases available for testing.
(§2) The assay of protein kinases was performed at 30° C. as described previously [Davies et al., Biochem. J. 351 (2000) 95; Murray et al., Biochem. J. 384 (2004) 477].

P70 S6K = P70 S6K (Homo sapiens, UniProt P23443); settings: ATP 20 μM
Description: as §1, §2

MNK1 = MNK1 (Homo sapiens, UniProt Q9BUB5); settings: read-out: residual activity (%) MNK1
Description: as §1, §2

PIM2 = PIM2 (Homo sapiens, UniProt Q9P1W9); settings: read-out: residual activity (%) PIM2
Description: as §1, §2

DYRK1a = DYRK1a (Homo sapiens, UniProt Q13627); settings: read-out: residual activity (%) DYRK1a
Description: as §1, §2

MNK2 = MNK2 (Homo sapiens, UniProt Q9HBH9); settings: read-out: residual activity (%) MNK2
Description: as §1, §2

CHK2 = CHK2 (Homo sapiens, UniProt O96017); settings: read-out: residual activity (%) CHK2
Description: as §1, §2

MAPKAP-K2 = MAPKAP-K2 (Homo sapiens, UniProt P49137); settings: read-out: residual activity (%) MAPKAP-K2
Description: as §1, §2

eEF2K = molecular target: T1, eEF2K (Homo sapiens, UniProt O00418); settings: read-out: residual activity (%) eEF2K
T1 sequence (O00418 1-725): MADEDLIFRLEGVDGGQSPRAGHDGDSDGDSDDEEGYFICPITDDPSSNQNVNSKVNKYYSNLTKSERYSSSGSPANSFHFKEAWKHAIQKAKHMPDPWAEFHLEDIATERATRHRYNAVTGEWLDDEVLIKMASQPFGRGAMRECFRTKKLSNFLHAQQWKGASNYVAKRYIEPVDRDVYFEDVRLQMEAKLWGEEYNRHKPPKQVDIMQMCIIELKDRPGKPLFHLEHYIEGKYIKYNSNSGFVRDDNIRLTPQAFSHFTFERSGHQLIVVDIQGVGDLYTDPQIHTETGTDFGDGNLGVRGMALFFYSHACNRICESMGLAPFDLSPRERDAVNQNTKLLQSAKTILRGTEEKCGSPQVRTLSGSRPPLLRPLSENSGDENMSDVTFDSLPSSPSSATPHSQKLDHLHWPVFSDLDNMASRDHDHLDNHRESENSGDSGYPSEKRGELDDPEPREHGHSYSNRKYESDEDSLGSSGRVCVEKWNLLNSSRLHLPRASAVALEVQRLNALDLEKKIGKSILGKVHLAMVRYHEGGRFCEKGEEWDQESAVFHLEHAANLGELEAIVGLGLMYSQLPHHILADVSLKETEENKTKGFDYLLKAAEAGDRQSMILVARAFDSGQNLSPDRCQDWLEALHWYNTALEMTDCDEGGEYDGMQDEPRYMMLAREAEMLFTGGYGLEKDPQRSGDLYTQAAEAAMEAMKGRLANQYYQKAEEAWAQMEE
Description: as §1, §2

GSK3b = GSK3b (Homo sapiens, UniProt P49841); settings: read-out: residual activity (%) GSK3b
Description: as §1, §2

PRAK = molecular target: T2, PRAK (Homo sapiens, UniProt Q8IW41); settings: read-out: residual activity (%) PRAK
T2 sequence (Q8IW41 1-473): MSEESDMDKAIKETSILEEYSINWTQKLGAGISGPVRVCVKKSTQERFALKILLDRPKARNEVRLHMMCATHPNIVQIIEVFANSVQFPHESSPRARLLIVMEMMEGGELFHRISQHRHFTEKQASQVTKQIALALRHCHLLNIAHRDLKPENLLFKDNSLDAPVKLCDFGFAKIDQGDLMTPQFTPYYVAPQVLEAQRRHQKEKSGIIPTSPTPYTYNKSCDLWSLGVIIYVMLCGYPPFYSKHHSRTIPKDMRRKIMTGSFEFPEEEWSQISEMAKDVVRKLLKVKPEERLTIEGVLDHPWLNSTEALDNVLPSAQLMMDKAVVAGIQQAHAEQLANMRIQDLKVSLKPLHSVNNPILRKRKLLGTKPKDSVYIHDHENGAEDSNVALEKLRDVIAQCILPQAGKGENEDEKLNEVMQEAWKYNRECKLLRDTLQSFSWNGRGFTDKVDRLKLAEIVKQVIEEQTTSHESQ
Description: as §1, §2

Src = Src (Homo sapiens, UniProt P12931); settings: read-out: residual activity (%) Src
Description: as §1, §2

CAMK-1 = CAMK-1 (Homo sapiens, UniProt Q14012); settings: read-out: residual activity (%) CAMK-1
Description: as §1, §2

P70 S6K, sequence (P23443 whole entry): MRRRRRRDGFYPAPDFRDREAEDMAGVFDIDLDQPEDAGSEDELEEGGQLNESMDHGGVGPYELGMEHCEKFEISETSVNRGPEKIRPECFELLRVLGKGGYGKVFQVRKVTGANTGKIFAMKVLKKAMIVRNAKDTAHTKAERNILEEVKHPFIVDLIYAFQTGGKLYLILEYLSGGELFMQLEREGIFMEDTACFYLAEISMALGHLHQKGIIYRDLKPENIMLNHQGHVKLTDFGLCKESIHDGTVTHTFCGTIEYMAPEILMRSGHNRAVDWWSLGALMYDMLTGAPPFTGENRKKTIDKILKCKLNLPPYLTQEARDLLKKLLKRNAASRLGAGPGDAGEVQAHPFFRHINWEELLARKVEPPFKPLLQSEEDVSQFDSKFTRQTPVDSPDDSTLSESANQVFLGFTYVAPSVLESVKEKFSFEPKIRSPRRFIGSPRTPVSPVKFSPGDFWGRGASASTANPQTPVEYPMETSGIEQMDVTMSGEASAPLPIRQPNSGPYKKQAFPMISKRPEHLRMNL
CK2, sequence (P68400 whole entry): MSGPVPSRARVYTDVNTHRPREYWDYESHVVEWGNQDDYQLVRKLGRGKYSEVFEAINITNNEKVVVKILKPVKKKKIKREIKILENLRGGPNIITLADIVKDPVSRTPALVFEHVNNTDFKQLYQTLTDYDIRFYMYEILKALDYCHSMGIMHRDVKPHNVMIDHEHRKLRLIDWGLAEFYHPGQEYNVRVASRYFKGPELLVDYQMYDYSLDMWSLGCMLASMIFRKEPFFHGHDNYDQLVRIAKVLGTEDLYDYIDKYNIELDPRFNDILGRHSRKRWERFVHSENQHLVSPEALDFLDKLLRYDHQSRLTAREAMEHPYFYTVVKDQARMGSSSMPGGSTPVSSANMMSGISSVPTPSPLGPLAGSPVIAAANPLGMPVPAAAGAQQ
CHK2, sequence (O96017 whole entry, species assumed): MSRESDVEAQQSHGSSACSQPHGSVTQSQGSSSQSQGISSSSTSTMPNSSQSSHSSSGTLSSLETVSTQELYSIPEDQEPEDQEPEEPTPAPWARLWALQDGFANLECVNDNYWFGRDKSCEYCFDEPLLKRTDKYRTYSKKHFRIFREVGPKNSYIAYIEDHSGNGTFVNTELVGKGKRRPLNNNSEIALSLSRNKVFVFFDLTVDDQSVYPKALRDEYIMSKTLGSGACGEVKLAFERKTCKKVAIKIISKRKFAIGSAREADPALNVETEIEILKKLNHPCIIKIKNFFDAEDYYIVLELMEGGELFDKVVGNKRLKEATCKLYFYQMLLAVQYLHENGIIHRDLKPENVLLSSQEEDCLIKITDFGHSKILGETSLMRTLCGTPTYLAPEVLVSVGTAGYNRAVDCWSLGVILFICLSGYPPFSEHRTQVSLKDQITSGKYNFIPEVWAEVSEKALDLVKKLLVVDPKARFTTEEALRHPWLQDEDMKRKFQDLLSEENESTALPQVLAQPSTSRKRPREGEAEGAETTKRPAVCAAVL
Src, sequence (P12931 whole entry, species assumed): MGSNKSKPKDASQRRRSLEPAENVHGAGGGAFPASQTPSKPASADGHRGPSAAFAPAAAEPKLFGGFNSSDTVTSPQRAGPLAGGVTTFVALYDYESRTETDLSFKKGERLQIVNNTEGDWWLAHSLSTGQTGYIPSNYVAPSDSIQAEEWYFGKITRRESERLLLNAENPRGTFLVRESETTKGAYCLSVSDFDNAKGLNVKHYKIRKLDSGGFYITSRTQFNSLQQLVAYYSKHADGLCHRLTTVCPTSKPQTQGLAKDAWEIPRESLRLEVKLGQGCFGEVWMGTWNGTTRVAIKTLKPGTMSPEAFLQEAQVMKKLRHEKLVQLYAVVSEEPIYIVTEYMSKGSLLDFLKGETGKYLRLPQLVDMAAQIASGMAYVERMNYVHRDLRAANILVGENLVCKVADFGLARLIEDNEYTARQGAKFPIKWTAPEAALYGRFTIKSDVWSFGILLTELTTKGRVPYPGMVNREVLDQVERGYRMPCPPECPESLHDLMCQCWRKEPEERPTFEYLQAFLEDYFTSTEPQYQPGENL
GSK3b, sequence (P49841 whole entry, species assumed): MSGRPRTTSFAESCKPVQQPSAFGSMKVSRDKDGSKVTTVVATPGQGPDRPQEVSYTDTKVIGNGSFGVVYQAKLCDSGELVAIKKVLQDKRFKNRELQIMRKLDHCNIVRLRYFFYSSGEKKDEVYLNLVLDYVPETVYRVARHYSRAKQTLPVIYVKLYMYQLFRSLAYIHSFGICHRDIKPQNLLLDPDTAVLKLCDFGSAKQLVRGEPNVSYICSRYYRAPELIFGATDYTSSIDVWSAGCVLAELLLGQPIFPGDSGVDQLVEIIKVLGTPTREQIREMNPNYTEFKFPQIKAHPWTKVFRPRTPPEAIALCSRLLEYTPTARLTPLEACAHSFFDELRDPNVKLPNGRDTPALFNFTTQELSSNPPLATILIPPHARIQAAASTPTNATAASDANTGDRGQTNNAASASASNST
MAPKAP-K2, sequence (P49137 whole entry, species assumed): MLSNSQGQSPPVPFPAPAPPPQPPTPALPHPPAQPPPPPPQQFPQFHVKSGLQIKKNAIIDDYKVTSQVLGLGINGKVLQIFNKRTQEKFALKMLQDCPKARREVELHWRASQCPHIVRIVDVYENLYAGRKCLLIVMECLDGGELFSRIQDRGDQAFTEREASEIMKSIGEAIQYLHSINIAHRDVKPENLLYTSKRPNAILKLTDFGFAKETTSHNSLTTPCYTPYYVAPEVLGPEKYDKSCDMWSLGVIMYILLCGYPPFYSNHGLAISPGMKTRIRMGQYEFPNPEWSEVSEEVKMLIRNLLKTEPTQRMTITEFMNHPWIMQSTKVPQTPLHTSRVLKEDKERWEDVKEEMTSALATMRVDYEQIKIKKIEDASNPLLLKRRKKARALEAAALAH
PIM2, sequence (Q9P1W9 whole entry, species assumed): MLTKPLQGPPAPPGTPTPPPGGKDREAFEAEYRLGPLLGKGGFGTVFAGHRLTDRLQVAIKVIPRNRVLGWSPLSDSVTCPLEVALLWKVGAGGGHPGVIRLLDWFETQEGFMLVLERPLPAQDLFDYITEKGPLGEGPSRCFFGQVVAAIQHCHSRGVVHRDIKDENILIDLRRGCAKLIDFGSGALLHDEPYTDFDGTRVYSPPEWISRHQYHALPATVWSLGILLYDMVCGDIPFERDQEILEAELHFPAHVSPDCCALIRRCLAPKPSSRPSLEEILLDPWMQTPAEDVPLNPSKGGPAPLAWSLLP
MNK1, sequence (Q9BUB5 whole entry, species assumed): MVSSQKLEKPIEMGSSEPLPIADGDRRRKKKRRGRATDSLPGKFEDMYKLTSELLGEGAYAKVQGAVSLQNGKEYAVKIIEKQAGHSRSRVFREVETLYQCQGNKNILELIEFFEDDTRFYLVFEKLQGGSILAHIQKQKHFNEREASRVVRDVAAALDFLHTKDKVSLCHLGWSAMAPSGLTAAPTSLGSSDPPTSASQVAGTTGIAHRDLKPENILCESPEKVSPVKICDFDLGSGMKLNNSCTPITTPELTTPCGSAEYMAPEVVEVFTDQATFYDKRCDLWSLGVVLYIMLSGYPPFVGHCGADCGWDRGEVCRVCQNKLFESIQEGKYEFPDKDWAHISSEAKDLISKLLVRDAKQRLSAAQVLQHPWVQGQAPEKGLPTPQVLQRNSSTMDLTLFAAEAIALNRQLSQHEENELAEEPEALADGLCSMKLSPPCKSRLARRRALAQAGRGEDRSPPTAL
MNK2, sequence (Q9HBH9 whole entry, species assumed): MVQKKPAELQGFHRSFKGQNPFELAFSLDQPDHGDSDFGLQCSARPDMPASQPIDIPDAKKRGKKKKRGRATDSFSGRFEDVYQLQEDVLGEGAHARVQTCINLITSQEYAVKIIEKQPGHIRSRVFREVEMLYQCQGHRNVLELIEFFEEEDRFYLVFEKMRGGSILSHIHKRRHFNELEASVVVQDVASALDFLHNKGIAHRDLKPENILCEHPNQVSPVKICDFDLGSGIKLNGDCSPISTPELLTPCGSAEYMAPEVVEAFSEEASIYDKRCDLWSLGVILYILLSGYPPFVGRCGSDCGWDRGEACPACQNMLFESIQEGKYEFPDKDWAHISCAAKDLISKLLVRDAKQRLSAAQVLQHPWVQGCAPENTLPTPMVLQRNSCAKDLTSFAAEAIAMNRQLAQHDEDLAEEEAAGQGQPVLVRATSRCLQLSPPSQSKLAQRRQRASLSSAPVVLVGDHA

N=C(N)NCCC[C@@H](NC(=O)[C@@H](CCCNC(=N)N)NC(=O)[C@@H](CCCNC(=N)N)NC(=O)[C@@H](CCCNC(=N)N)NC(=O)[C@@H](CCCNC(=N)N)NC(=O)[C@@H](CCCNC(=N)N)NC(=O)CCCCCNC(=O)[C@H]1O[C@@H](n2cnc3c(N)ncnc32)[C@H](O)[C@@H]1O)C(N)=O [Compound 5, AdcAhx(D-Arg)6-NH2]
remaining activity at 1 µM (CK2): 104% | residual activity (%) P70 S6K (P70 S6K; inhibitor 1 μM): 7 (±2) % | remaining activity at 1 µM (P70 S6K; read-out: residual activity (%) P70 S6K, inhibitor 1 μM): 7 to 28% | remaining activity at 1 µM (MNK1): 102% | remaining activity at 1 µM (PIM2): 38% | remaining activity at 1 µM (DYRK1a): 72% | remaining activity at 1 µM (MNK2): 99% | remaining activity at 1 µM (CHK2): 14% | remaining activity at 1 µM (MAPKAP-K2): 85% | remaining activity at 1 µM (eEF2K): 92% | remaining activity at 1 µM (GSK3b): 56% | remaining activity at 1 µM (PRAK): 89% | remaining activity at 1 µM (Src): 84% | remaining activity at 1 µM (CAMK-1): 15%

N=C(N)NCCC[C@@H](NC(=O)[C@@H](CCCNC(=N)N)NC(=O)[C@@H](CCCNC(=N)N)NC(=O)[C@@H](CCCNC(=N)N)NC(=O)[C@@H](CCCNC(=N)N)NC(=O)[C@@H](CCCNC(=N)N)NC(=O)CCCCCNCCNS(=O)(=O)c1cccc2cnccc12)C(N)=O [Compound 26, H9-Hex(D-Arg)6-NH2]
remaining activity at 1 µM (CK2; inhibitor 1 μM, ATP 5 μM): 87% | remaining activity at 1 µM (P70 S6K; inhibitor 1 μM, read-out: residual activity (%) P70 S6K): 2% | remaining activity at 1 µM (MNK1; inhibitor 1 μM, ATP 50 μM): 68% | remaining activity at 1 µM (PIM2; inhibitor 1 μM, ATP 5 μM): < 10% | remaining activity at 1 µM (DYRK1a; inhibitor 1 μM, ATP 50 μM): 69% | remaining activity at 1 µM (MNK2; inhibitor 1 μM, ATP 50 μM): 31% | remaining activity at 1 µM (CHK2; inhibitor 1 μM, ATP 20 μM): 22% | remaining activity at 1 µM (MAPKAP-K2; inhibitor 1 μM, ATP 20 μM): 80% | remaining activity at 1 µM (eEF2K; inhibitor 1 μM, ATP 5 μM): 91% | remaining activity at 1 µM (GSK3b; inhibitor 1 μM, ATP 5 μM): 94% | remaining activity at 1 µM (PRAK; inhibitor 1 μM, ATP 20 μM): 97% | remaining activity at 1 µM (Src; inhibitor 1 μM, ATP 50 μM): 88% | remaining activity at 1 µM (CAMK-1; inhibitor 1 μM, ATP 50 μM): < 10%
